Measured values from patent US20200385730, “Aptamers Against Clostridium Difficile” (Biovector, Inc., published 2020).

Columns and labels:
[1] = target: T1, CotEC chitinase (rCotEC P381-F712) (Clostridium difficile); assay: BLI; conditions: tags: C-terminal His
[2] = target: T1, CotEC chitinase (rCotEC P381-F712); assay: SPR; conditions: tags: C-terminal His
Protocol: (§1) For CotE D2, CotE H2 and CotEC chitinase, aptamers were spotted on a gold surface at a concentration of 5 μM in PBS at a volume of approximately 10 nL in triplicate. Negative aptamers of the same length as the positive aptamers were spotted in the same manner, also in triplicate. Protein was then injected over the chip at a volume of 200 μL, with a flow rate of 50 μL/min in a Horiba (OpenPlex) surface plasmon resonance imaging (SPRi) instrument. Resonance due to binding was obtained by subtracting total resonance on the negative sequences from total resonance on the positive sequences. Disassociation values were computed with the following equation: dx/dt˜−kd*x, wherein dx/dt is the derivative of resonance values as a function of time and x is the resonance value for any given time point. Association values were computed with the following equation: dx/dt˜ka*c*Rmax−(ka*c+kd)*x, where x is the resonance due to binding at specific time points, c is the concentration of injectant, and Rmax is the maximum resonance observed.
(§2) For aptamer CdeC D1 (SEQ ID No 6), the KD was not determined due to protein aggregation.

CotA [3] = target: T2, CotA (Clostridium difficile, UniProt Q186G8 SEQ:1-305); assay: SPR; CotA immobilized on hydrogel chip by EDC, aptamer injected; conditions: tags: His6
T2 sequence: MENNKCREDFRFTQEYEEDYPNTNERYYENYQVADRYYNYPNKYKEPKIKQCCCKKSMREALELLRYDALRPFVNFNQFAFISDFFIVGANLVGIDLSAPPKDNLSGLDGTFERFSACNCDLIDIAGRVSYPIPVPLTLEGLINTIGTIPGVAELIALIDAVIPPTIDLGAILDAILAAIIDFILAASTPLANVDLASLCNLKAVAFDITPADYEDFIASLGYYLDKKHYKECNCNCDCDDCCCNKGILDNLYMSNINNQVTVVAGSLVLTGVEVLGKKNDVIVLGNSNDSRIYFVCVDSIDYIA
Protocol: For CotA C1, the protein was immobilized on a hydrogel chip with EDC-mediated conjugation between primary amines on the protein (side chains on residues) and carboxylic acid groups on the surface of the chip. A protein of similar size was immobilized in the same manner as a negative control. […] For CdeC D1, the protein was received as aggregated, insoluble balls of protein. The binding assay was performed by incubating fluorescently labeled aptamers (FAM) with the protein, and then spinning the tubes down in a microcentrifuge to remove unbound. The pellet was resuspended in selection buffer and spun down again. Bound aptamers were eluted by adding 6 M urea, and spinning again, retaining the supernatant. The aptamers were cleaned up with PCR cleanup columns and the fluorescence was read on a Tecan Sapphire II fluorometer. Excitation was at 497 nm, and emission was at 515 nm. The amount of fluorescence measured in the eluant was divided by the total amount of fluorescence of all fractions.
as §2

CotE (rCotE N281-F712) = CotE (rCotE N281-F712) (Clostridium difficile); assay: SPR; conditions: tags: C-terminal His
Protocol: as §1, §2

CotA [4] = target: T2, CotA; assay: BLI; slower association, little dissociation; conditions: tags: His6
Protocol: The refined pools (characterized in FIGS. 21-25) were taken forwards for monoclonal isolation. All aptamers were purified (after elution) and resuspended and stored in water. Before use in selections or binding assays, aptamers were diluted in a final concentration 1× buffer. Individual aptamer clones were isolated and screened by BLI using aptamer concentrations of 0.5 μM, 1 μM, or 2 μM. Again, the target was immobilized onto a Biolayer Interferometry sensor probe and then incubated with each aptamer clone. The results are presented below (FIGS. 26-30).

CdeM = CdeM (Clostridium difficile); assay: BLI; conditions: tags: His

B1: Chitinase_D10 (ssDNA)
DNA: CCAGTGTAGACTACTCAATGCCCTATTAGCTGTATCGATCCGTTTAGTCGCTCCTCCGATAGTACTATCCACAGGTCAACC
binding result [1]: binds

B2: Chitinase_D11 (ssDNA)
DNA: CCAGTGTAGACTACTCAATGCCTGGTAAATCGATGACCGCTGCCTCGCCTGAGTAATCATCGTACTATCCACAGGTCAACC
Kd [2]: 254 nM

B3: CotA_C1 (ssDNA)
DNA: CCAGTGTAGACTACTCAATGCCGTGGACTGGTCGGGTTTGGATTCGGCAGATGAATCACTAGTACTATCCACAGGTCAACC
Kd (CotA [3]): 6.87 nM

B4: Chitinase_H11 (ssDNA)
DNA: CCAGTGTAGACTACTCAATGCCTTGTAAGAAGAACAATCGCCGCTTCGCCTGAATAGGTTCGTACTATCCACAGGTCAACC
binding result [1]: binds

B5: CotE_D2 (ssDNA)
DNA: CCAGTGTAGACTACTCAATGCTCGACATTTCCGCCCCGACGGCCCTCCTAGTGATGGGGAGAGTACTATCCACAGGTCAACC
Kd (CotE (rCotE N281-F712)): > 250 nM

B6: CotA_B1 (ssDNA)
DNA: CCAGTGTAGACTACTCAATGCTTAAGTTCTGGGGACACGTGATGAACGCATTTAATGGGGCGTACTATCCACAGGTCAACC
binding result (CotA [4]): binds

B7: CdeM_E2 (ssDNA)
DNA: CCAGTGTAGACTACTCAATGCCTTCCATTCACCTACCGAGCTAAGCGTTCGACTTAGGTCTGTACTATCCACAGGTCAACC
binding result (CdeM): binds
